Biological target: preformed E3mUU–UFC1–UFM1 complex (UniProt O94874)
Test: ITC; MicroCal PEAQ-ITC, 25 °C, 25 mM HEPES pH 7.5, 200 mM NaCl, 0.44 mM TCEP; 13 injections (19 for UFBP1 UFIM–UFM1)

- Kd: 500 nM
Substance: CDK5RAP3 (from UniProt Q96JB5 1-506) (natural protein)
